Earlier results as cited in paper PMC11281341.

Biological target: HIV-1 capsid protein (CA) CA (Human immunodeficiency virus 1) (UniProt O93182)
Sequence (O93182 133-363): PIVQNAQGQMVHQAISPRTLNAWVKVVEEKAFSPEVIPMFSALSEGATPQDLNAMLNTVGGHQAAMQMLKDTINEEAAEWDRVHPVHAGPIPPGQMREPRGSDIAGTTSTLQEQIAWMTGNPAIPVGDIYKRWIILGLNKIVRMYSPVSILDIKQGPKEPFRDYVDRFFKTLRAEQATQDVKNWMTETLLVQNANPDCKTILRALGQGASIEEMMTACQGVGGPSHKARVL

Chain of TRIM5alpha SPRY (Q0PF16 283-497): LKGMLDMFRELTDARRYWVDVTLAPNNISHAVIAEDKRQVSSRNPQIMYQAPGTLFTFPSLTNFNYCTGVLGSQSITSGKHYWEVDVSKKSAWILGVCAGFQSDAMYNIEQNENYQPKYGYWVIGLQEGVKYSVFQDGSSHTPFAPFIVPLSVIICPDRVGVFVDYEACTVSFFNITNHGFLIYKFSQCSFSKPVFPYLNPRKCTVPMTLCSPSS

TRIM5alpha SPRY (from UniProt Q0PF16)
Kd: > 1000 µM
